Where two headings read alike, the source gives them in different places.
Tests used:
[1] = target: NS5BΔ21-5a fused to cyan or citrine fluorescent protein (hepatitis C virus genotype 5a (patient isolate)); assay: FRET or BRET; in vitro; purified NS5BΔ21-cyan and NS5BΔ21-citrine of the same genotype mixed equimolar, 50 nM each; 10 mM NaCl and 4.5 mM Mg(CH3COO)2; excitation 432 nm, FRET ratio = emission 530 nm/478 nm, normalised against NS5BΔ21-1b; twelve independent experiments
[2] = target: NS5BΔ21-5a fused to cyan or citrine fluorescent protein (hepatitis C virus genotype 5a (patient isolate)); assay: as above; remark: listed apart in the source

## NS5BΔ21-5a fused to cyan or citrine fluorescent protein (enzyme)
[1]
  FRET ratio relative to NS5BΔ21-1b: 40%
[2]
  FRET ratio relative to NS5BΔ21-1b: < 50%
